# Assay results: the DeepSol protein solubility set
# Test: soluble on expression in E. coli; label from the status in PepcDB or PDB records
row,Sequence,soluble on expression in E. coli
1,MTTLAIDIGGTKLAAALIDNNLRISQRRELPTPASKTPDALREALKALVEPLRAEARQVAIASTGIIQEGMLLALNPHNLGGLLHFPLVQTLEAIAGLPTLAVNDAQAAAWAEYHALPDDIRDMVFITVSTGVGGGVVCDGKLLTGKGGLAGHLGHTLADPHGPVCGCGRVGCVEAIASGRGMAAAARDDLAGCDAKTLFIRAGEGHQQARHLVSQSAQVIARMIADVKATTDCQCVVIGGSVGLAEGYLEQVRAFLMQEPAPYHVALSAARYRHDAGLLGAALLAQGDTL,not soluble
2,MTTLQEAYLAFKSAQIIDLTHQINENSPHFPLLPALEKKDLFTLKDGFHIQQFTVVGQYGTHIDAPIHFVEGGAWLDELPLEDLLLPMYVIDKSQAVADNPNYELSKADILAFEEKYGQIEEGAFVAFRSDWSKRWPSQEEFRNLDTAGAQQTPGWSHEALEFLIHERQVKAVGHETFDTDSGQAVAENGKLVEEYYLLDQGIYQLEVLNNLNLLPATGSFISIAYPHWEKATGSPVRAIAYIAQELEHHHHHH,soluble
3,MTTMGEDEAPALPKKSPLPEKIDEADVDDDPDDKVIKIVVVGDGASGKTSICQRFAKESFDKSYHQTLGLDFFSRRITLPHEMQVLVQVWDIGGQSIAGEMIDKYLTGANIVFLVYDVTNSKSFENAVDWLSVVKKNTKSSETPVKLVLMGNKTDLEERRVVSVEAHKNFATSNDMMPTYVSAKTGDTVFLTFRQAVAEVLNVGLSRAEVEADIEIVQGSVIEQPKQSDASYARRSDQSRSTSVCSIT,soluble
4,MTTMVNVDTLPEYEKSQIKRALELGTVMTVFNARKSTPERRTVQMIMETRQVAWSKTADKIEGFLDIMEIKEIRPGKNSKDFERAKAVRHKAECCFTILYGTQFVLSTLSLATDSKEDAVKWLSGLKILHQEAMSASTPTMIESWLRKQIYSVDQTRRNSISLRELKTILPLVNFKVSGIKFLKDKLVEIGAQKDELSFEQFHLFYKKLMFDQQKSILDEFKKDSSVFILGNTDRPDASAVYLQDFQRFLLHEQQELWAQDLNKVRERMTKFIDDTMRETAEPFLFVDEFLTYLFSRENSIWDEKYDAVDMQDMNNPLSHYWISSSHNTYLTGDQLRSESSTEAYIRCLRAGCRCIELDCWDGPDGKPIIYHGWTRTTKIKFDDVVQAIRDHAFVTSSFPVILSIEEHCSVEQQRHMAKVFKEVLGDMLLTKPTEASADQLPSPSQLREKIIIKHKKLGPKGDVDVNVEDKKDEHKPQGELYMWDSIDQKWTRHYCAIADAKLSFGDDIEQAVEEEPVQDTPPTELHFGEKWFHKKVESRTSAEKLLQEYCAETGAKDGTFLVRESETFPNDYTLSFWRSGRVQHCRIRSTMENGVMKYYLTDNLTFNSIYALIQHYREAHLRCAEFELRLTDPVPNPNPHESKPWYYDSLSRGEAEDMLMRIPRDGAFLIRKREGTNSYAITFRARGKVKHCRINRDGRHFVLGTSAYFESLVELVSYYEKHALYRKMRLRYPVTPELLERYNMERDINSLYDVSRMYVDPSEINPSMPQRTVKALYDYKAKRSDELTFCRGALIHNVSKEPGGWWKGDYGTRIQQYFPSNYVEDISAGDAEEMEKQIIEDNPLGSLCKGILDLNTYNVVKAPQGKNQKAFVFILEPKKQGDPPVEFATDRVEELFEWFQSIREITWKMDTKENNMKYWERNQSIAIELSDLVVYCKPTSKTKDHLENPDFREIRSFVETKADSIVRQKPVDLLRYNQKGLTRVYPKGQRVDSSNYDPFRLWLCGSQMVALNFQTPDKYMQMNHALFSLNGRTGYVLQPESMRSEKYDPMPLESQRKILMTLTVKVLGARHLPKLGRSIACPFVEVEICGAEYDSNKFKTTVVNDNGLSPVWAPTQEKVTFEIYDPNLAFLRFVVYEEDMFSDPNFLAHATYPIKGIKSGFRSVPLKNGYSEDIELASLLVFCEMRPVLESEEELYSSCRQLRRRQEELNNQLFLYDTHQNLRGANRDALVKEFNVNENQLQLYQEKCNRRLREKRVSNSRFYS,soluble
5,MTTQITAEDVEAYLGTRENSPTMSDTVDAAVDLVESWKSTPQEKWPPRWRRGCIMLAARMDRRRNSPAGVDTMGEIGVVYVSRKDPDIAQLLEIGDFSKPIAR,not soluble
6,MTTQQKKSSTRQGFKTGESIVYPAHGVGQIVAIEEQEVAGMKLELFVIDFEKDKMRLKVPVAKAVGIGMRKLSETDFVDRALKVVQGKARVKRTMWSRRAQEYDAKINSGDLISIAEVVRDLYRAENQPEQSYSERQLYEAALDRMAREIAAVNRMSETEAVRLVEANLNKGPKRGKAIEEDDAQDEAA,not soluble
7,MTTRCPWVGEQSIYIDYHDKEWGKPEFDSQKLFEKICLEGQQAGLSWITVLKKRESYREAFHQFDPKKIAKMTALDIDACMQNSGLIRHRAKLEAIVKNAKAYLAMEKCGENFSDFIWSFVNHKPIVNDVPDLRSVPTKTEVSKALSKALKKRGFVFIGETTCYAFMQSMGLVDDHLNDCPCKTSLEHHHHHH,soluble
8,MTTSPTENAHAVVLGGSVAGCLAAAVLARRYPRVTIVEKSDFHNETGARQSVPQEHHVHLLLQRGKDIMEAIFPGFLSELEQAGALVADLGHDVKWYQAGRWKNRYRCGIHAHYCSRRLIDTHLRRRVARLPQVTVLSRTQMEGLDFRRDGDRLAVGGVRLRNDDHAWTLDADALVDASGRGTRLPGWLETAGLGAVDKSMVKTDLGYASRIYRRRPEFANQWKVLLVLATPPHQRAMGVISPIEGDRWMVTTGGWFGHYPDRDPNAFLKALAALPMPDIHQVIRDAEPLSDVSVFRMPGSLRRHYDRLPRWPDGLLVVGDALASMNPLYSQGMTLCALEAECLDENLDALLAGGLRCQELQEKLCRALDPAWQMAVTEDLRFPETEGERGWRTRFLHWYGAGLTRLSAYHRGALEAQIGVSNLIVNPSRLYAPPIAARIVLGSLLPGEARTLEHHHHHH,not soluble
9,MTTTTPIRLLVRPITAGDNLAIANVIREVSAEFGLTADKGYTVSDPNLDHLYELYSQPRSAYWVIEVDGHIAGGGGVAPLLGGEADLCELQKMYFLPILRGKGLAKQLALQALAFARQQGFGRCYLETTASLTSAVGLYERLGFEHIGGAMGNTGHVDCEVTMLKTL,not soluble
10,MTTVRQRIDTQHRDAIHDAQLNIYGSRLATCGSDRLVKIFEVRPNGQSYPMAELVGHSGPVWKVSWAHPKYGGLLASASYDKKVIIWNEQQGRWQKAYEWAAHEASTTCVAFAPHQYGLMLASASADGDIGILRYDNSSNEWISSKIQKCHEQGVNSVCWAPGSADPAAKKRLVSAGNDKNVKIWALSQFGAKIFRDNGSKCHVTIRNARE,soluble
11,MTVATYEVEKQFLTYVKKIQNYGEALSLMFWDLRTGAPKKGVDQRSEVIGMLSSEVFAMSTSDEMGNYLTELEALISEDKLSETTKKMVEECRKEYDRNKKIPQAEYEAYVKLEAKAESVWEEAREKSDFEMFRPYLEQIVEFKKKFITYWGYETYKYNTLLDMYEPGITVEVLDHVFGQLRERIVPLVKEISESQKRLKTSALSEHFSKEKQKNFTLELLKQLNYDFEAGRLDETVHPFEITLNRGDVRITTRYDEKDFRMAVFGTIHECGHAVYEQNIAEKFEGTPLCSGTSMGIHESQSLFFENFIGRNKSFWKKNYDLLKEYSDGQFNDISVDEFYDAINESKPSFIRIEADELTYPLHVMVRYELEKELFDGTLQVKDLPAAWNDKMEAYLGIRPANDAQGVLQDVHWAGGSFGYFPSYALGYMYAAQFKQRMVKDIPNFDALLEEGNVTPIREWLTENIHQYGKTKKPLEILEDVTGEGLNANYLADYLEAKYREIYEL,not soluble
12,MTVDLTNVFQQIDGDYDNLKELLREAVAIQSVSGDPSKRDETIRMVHWMKEKLETIGTICELADLGTQELEGKTVKLPPVLLGTLGSDKNKKTLLVYGHLDVQPAAKSDGWDTEPFELVEKDGKLFGRGSSDDKGPVLCWFHAIRAAQKNGIDLPVNIKFCLEGMEESGSVGLPELLEREKDRFLAGVDFVCISDSYWLGTKKPCLTYGLRGICSFFVEVTGIKQDLHSGVFGGVIHEPLQDLMWVMSQLTTVDNRIKIPGLYEQVAPLSAAEEKTYDDIEFDVAEFRDSVGASKLPTEDKKTLLLRRWREPSLAFHGIEGAFYGPGEKTVIPSKVIGKFSIRIVPDMDPEQVNRLTVEYLNKVWAERGSPNVFKPRPGHSAKPWVVDVNDSNFLAGARAMKRVHGVEPDRIREGCSIPITLTFQELTGKSVLLLPIGAADDMAHSQNEKNNIWNYVEGVKTLLAYIMELGSA,not soluble
13,MTVDSSMSSGYCSLDEELEDCFFTAKTTFFRNAQSKHLSKNVCKPVEETQRPPTLQEIKQKIDSYNTREKNCLGMKLSEDGTYTGFIKVHLKLRRPVTVPAGIRPQSIYDAIKEVNLAATTDKRTSFYLPLDAIKQLHISSTTTVSEVIQGLLKKFMVVDNPQKFALFKRIHKDGQVLFQKLSIADRPLYLRLLAGPDTEVLSFVLKENETGEVEWDAFSIPELQNFLTILEKEEQDKIQQVQKKYDKFRQKLEEALRESQGKPG,not soluble
14,MTVEQNVLQQSAAQKHQQTFLNQLREITGINDAQILQQALKDSNGNLELAVAFLTAKNAKTPPQEET,soluble
15,MTVLEAVLEIQAITGSRLLSMVPGPARPPGSCWDPTQCTRTWLLSHTPRRRWISGLPRASCRLGEEPPPLPYCDQAYGEELSIRHRETWAWLSRTDTAWPGAPGVKQARILGELLLV,not soluble
16,MTVLLSKRAINILLMLLDLEGSITTQELAESFTVSVRTIKYDLEDIRAWFEQHDETLYSKRNKGIWLDLPDSKRLLLKNEIIDVDRFETYPDQKRRVNVLIFQLLSVKGYLTAQQLADELLVSRNTIVSDLEQVERLLQAYDLTLIRQARQGFTISGEESNVRLLMEFITQKELTEYDIYQIMNYVTKTKGAEKIPKIKFGSGTLFQGCYRSALKKMRNLINPLDQNQFDYAEILSITLRVAIAAARMQMAHTIGTYRVLSQKTRFEQRNEVPLLLLQEVFERYDLPLLADEYFYIYSDLFGTHQRQDMVQLTKQVIESVSKELNYPFVNDRQLFTNLFAHLSLRFTKKHLFINEYNPFSEEIKGKHPALFLAIQSACKQLIQRSVLLVNDSFCAYIALHFLAAQERQQQEAKVVRIVYVCSTGLGVTSLIEQKILEEVPNVELAGFASVLNATEVIQAEKPDLVLSIFPIEEMTYPFIKVSPLLTDTDLSLIREEVDKILLGKRQGKGTARSTKSDVIEKNERIQSQDLLVKAYIIYEELKRMFQTKLLSEYQEAFLLHVLLMTHRITFNKQYEEIPCNREVSHERQEEIRQIECLFAKNELPVNHAEISALLNYLEQPKEEEDGTSNGSTGDHSTKC,not soluble
17,MTVPTYDKFIEPVLRYLATKPEGAAARDVHEAAADALGLDDSQRAKVITSGQLVYKNRAGWAHDRLKRAGLSQSLSRGKWCLTPAGFDWVASHPQPMTEQETNHLAFAFVNVKLKSRPDAVDLDPKADSPDHEELAKSSPDDRLDQALKELRDAVADEVLENLLQVSPSRFEVIVLDVLHRLGYGGHRDDLQRVGGTGDGGIDGVISLDKLGLEKVYVQAKRWQNTVGRPELQAFYGALAGQKAKRGVFITTSGFTSQARDFAQSVEGMVLVDGERLVHLMIENEVGVSSRLLKVPKLDMDYFE,soluble
18,MTVPYETAKAALLEAAMMHVPFDGWSETTFQAAARDAELSPSVARAICPRGAVDLAIAFHKAGDAAMLDRLAETDLSAMKFRDKVTAAVRIRLEVIEDKEAVRRGTTLFALPMYAADGAKLIWGTCDAIWTTLGDTSDDVNWYTKRATLSGVYSSTVLYWLGDDSPDHMATWGFLDRRIENVMAIEQVKAKVRQSPTLSRLMTGPNWLLSQIKAPRITPKTDLEHHHHHH,soluble
